Assay results published in patent US20230265151A1, “GIP/GLP1 CO-AGONIST COMPOUNDS” (priority 2020, published 2023).

Assays:
Test in all cases: cell-based or functional assay
human GLP-1 receptor = human GLP-1 receptor (human, UniProt P43220 24-463)
human glucagon receptor = human glucagon receptor (human, UniProt P47871 26-477)
human GIP receptor = target: T1, human GIP receptor (human, UniProt P48546 22-466)
T1 sequence (looked up): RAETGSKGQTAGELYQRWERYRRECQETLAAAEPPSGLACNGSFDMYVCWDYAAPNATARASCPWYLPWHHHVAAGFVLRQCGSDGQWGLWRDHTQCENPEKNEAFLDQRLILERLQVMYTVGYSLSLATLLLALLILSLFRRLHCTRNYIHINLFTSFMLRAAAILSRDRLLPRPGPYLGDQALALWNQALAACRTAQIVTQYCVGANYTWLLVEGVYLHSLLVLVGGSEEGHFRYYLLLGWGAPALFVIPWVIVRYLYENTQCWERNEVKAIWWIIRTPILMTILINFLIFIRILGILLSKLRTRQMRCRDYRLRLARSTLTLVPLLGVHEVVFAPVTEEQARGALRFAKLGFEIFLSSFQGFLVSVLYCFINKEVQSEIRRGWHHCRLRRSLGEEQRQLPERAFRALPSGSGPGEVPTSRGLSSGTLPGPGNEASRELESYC

Binder | EC50, cAMP (human GLP-1 receptor) | EC50, cAMP (human glucagon receptor) | EC50, cAMP (human GIP receptor) | Emax, cAMP (human GIP receptor) | Emax, cAMP (human GLP-1 receptor)
YXEGTXTSDXSIXLDXIAQXEFIKXLIEGGPSSGAPPPSK (Aib2, αMeF(2F)6, 4Pal10, αMeL13, Orn16, Aib20, αMeY25, K24 and K40: K(AEEA2-(γ-Glu)-CO-(CH2)12-CO2H), C-terminal NH2) [Example 72] | 0.245 nM | > 9950 nM | 0.016 nM | 96.5% | –
YXEGTXTSDXSIXLDXIAQXKFIXXLIEGGPSSGAPPPSK (Aib2, αMeF(2F)6, 4Pal10, αMeL13, Orn16, Aib20, D-Glu24, αMeY25, K21 and K40: K(AEEA2-(γ-Glu)-CO-(CH2)12-CO2H), C-terminal NH2) [Example 75] | 0.411 nM | > 9950 nM | 0.0182 nM | 92.3% | –
YXEGTXTSDXSIXLDXKAQXEFIXXLIEGGKSSGAPPPS (Aib2, αMeF(2F)6, hTyr10, αMeL13, Orn16, Aib20, D-Glu24, αMeY25, K17 and K31: K(AEEA2-(γ-Glu)-CO-(CH2)12-CO2H), C-terminal NH2) [Example 59] | 0.202 nM | > 9950 nM | 0.024 nM | 89.2% | –
YXEGTXTSDXSIXLDXKAQXEXIKXLIEGGPSSGAPPPS (Aib2, αMeF(2F)6, 4Pal10, αMeL13, Orn16, Aib20, αMeF22, αMeY25, K17 and K24: K(AEEA2-(γ-Glu)-CO-(CH2)12-CO2H), C-terminal NH2) [Example 82] | 4.78 nM | > 9950 nM | 0.0206 nM | 81.4% | –
YXEGTXTSDXXIXLDXKAQXEFIXXLIEGGKSSGAPPPS (Aib2, αMeF(2F)6, 4Pal10, Aib11, αMeL13, Orn16, Aib20, D-Glu24, αMeY25, K17 and K31: K(AEEA2-(γ-Glu)-CO-(CH2)12-CO2H), C-terminal NH2) [Example 89] | 1.03 nM | > 9950 nM | 0.0301 nM | 88.9% | –
YXEGTXTSDXSIXLDXKAQXEFIKXLIEGGPSSGAPPPS (Aib2, αMeF(2F)6, 4Pal10, αMeL13, Orn16, Aib20, αMeF25, K17 and K24: K(AEEA2-(γ-Glu)-CO-(CH2)12-CO2H), C-terminal NH2) [Example 83] | 0.451 nM | > 9950 nM | 0.0223 nM | 89.6% | –
YXEGTXTSDVSIXLDXKAQXEFIXXLIEGGKSSGAPPPS (Aib2, αMeF(2F)6, αMeL13, Orn16, Aib20, D-Glu24, αMeY25, K17 and K31: K(AEEA2-(γ-Glu)-CO-(CH2)12-CO2H), C-terminal NH2) [Example 90] | 0.221 nM | > 9950 nM | 0.0436 nM | 93% | 96.2%
YXEGTXTSDXSIXLDXIAQXEFIKXLIEGGKSSGAPPPS (Aib2, αMeF(2F)6, 4Pal10, αMeL13, Orn16, Aib20, αMeY25, K24 and K31: K(AEEA2-(γ-Glu)-CO-(CH2)12-CO2H), C-terminal NH2) [Example 71] | 0.246 nM | > 9950 nM | 0.0171 nM | 93.8% | –
YXEGTXTSDXSIXLDXKAQXEXIXXLIEGGKSSGAPPPS (Aib2, αMeF(2F)6, 4Pal10, αMeL13, Orn16, Aib20, 1Nal22, D-Glu24, αMeY25, K17 and K31: K(AEEA2-(γ-Glu)-CO-(CH2)12-CO2H), C-terminal NH2) [Example 66] | 0.355 nM | > 9950 nM | 0.0168 nM | – | –
YXEGTXTSDXSIXLDXIAQXKFIXXLIKGGPSSGAPPPS (Aib2, αMeF(2F)6, 4Pal10, αMeL13, Orn16, Aib20, D-Glu24, αMeY25, K21 and K28: K(AEEA2-(γ-Glu)-CO-(CH2)12-CO2H), C-terminal NH2) [Example 73] | 0.437 nM | > 9950 nM | 0.0207 nM | 97.1% | –
YXEGTXTSDXSIXLDXQAQXEFIXXLIKGGKSSGAPPPS (Aib2, αMeF(2F)6, 4Pal10, αMeL13, Orn16, Aib20, D-Glu24, αMeY25, K28 and K31: K(AEEA2-(γ-Glu)-CO-(CH2)12-CO2H), C-terminal NH2) [Example 86] | 0.359 nM | > 9950 nM | 0.0184 nM | 94.2% | –
YXEGTXTSDXSIXLDXKAQXEFIXXLIEGGKSSGAPPPS (Aib2, αMeF(2F)6, 4Pal10, αMeL13, Orn16, Aib20, D-Glu24, αMeY25, K17 and K31: K(AEEA2-(γ-Glu)-CO-(CH2)12-CH3), C-terminal NH2) [Example 8] | 0.0157 nM | > 9950 nM | 0.00307 nM | – | –
YXEGTXTSDXSIXLDXKAQXEFIXXLIEGGKSSGAPPPS (Aib2, αMeF(2F)6, 4Pal10, αMeL13, Orn16, Aib20, D-Glu24, αMeY25, K17 and K31: K(AEEA2-(γ-Glu)-CO-(CH2)10-CH3), C-terminal NH2) [Example 5] | 0.057 nM | > 9150 nM | 0.00585 nM | – | –
YXEGTXTSDXSIXLDXKAQXEXIXXLIEGGKSSGAPPPS (Aib2, αMeF(2F)6, 4Pal10, αMeL13, Orn16, Aib20, 3ClPhe22, D-Glu24, αMeY25, K17 and K31: K(AEEA2-(γ-Glu)-CO-(CH2)12-CO2H), C-terminal NH2) [Example 62] | 0.48 nM | > 9950 nM | 0.0211 nM | – | 99.4%
YXEGTXTSDXSIXLDXKAQXEXIXXLIEGGKSSGAPPPS (Aib2, αMeF(2F)6, 4Pal10, αMeL13, Orn16, Aib20, 3,5FPhe22, D-Glu24, αMeY25, K17 and K31: K(AEEA2-(γ-Glu)-CO-(CH2)12-CO2H), C-terminal NH2) [Example 65] | 0.3 nM | > 9950 nM | 0.0139 nM | – | –
YXEGTXTSDVSIXLDXKAQXEXIXXLIEGGKSSGAPPPS (Aib2, αMeF(2F)6, αMeL13, Orn16, Aib20, αMeF22, D-Glu24, αMeY25, K17 and K31: K(AEEA2-(γ-Glu)-CO-(CH2)12-CO2H), C-terminal NH2) [Example 92] | 0.942 nM | > 9950 nM | 0.0251 nM | – | –
YXEGTXTSDXSIXLDXKAQXEFIXXLIEGGKSSGAPPPS (Aib2, αMeF(2F)6, αMeF(2F)10, αMeL13, Orn16, Aib20, D-Glu24, αMeY25, K17 and K31: K(AEEA2-(γ-Glu)-CO-(CH2)12-CO2H), C-terminal NH2) [Example 87] | 1.34 nM | > 9950 nM | 0.029 nM | 84.7% | –
YXEGTXTSDXSIXLDXKAQXEFIXXLIEGGKSSGAPPPS (Aib2, αMeF(2F)6, Nle10, αMeL13, Orn16, Aib20, D-Glu24, αMeY25, K17 and K31: K(AEEA2-(γ-Glu)-CO-(CH2)12-CO2H), C-terminal NH2) [Example 60] | 0.19 nM | > 9950 nM | 0.0126 nM | – | –
